Our source for the ASCL1 mRNA by qPCR, +rapamycin/-rapamycin ratio, IL1RN mRNA by qPCR, +rapamycin/-rapamycin ratio and MYOD1 mRNA by qPCR, +rapamycin/-rapamycin ratio values is patent publication US20180066242A1.

For the assay, the target named is dCas9(C)-FKBP-2×NLS-VP64 (split-4, N863A) (Streptococcus pyogenes). The assay can be described thus: cell-based or functional assay.

As for “dCas9(N)-FRB-2×NES (split-4, D10A) (from UniProt Q99ZW2 1-535; P42345 2021-2113; Q05397 518-525)”, the ASCL1 mRNA by qPCR, +rapamycin/-rapamycin ratio was 77; the IL1RN mRNA by qPCR, +rapamycin/-rapamycin ratio came out at 649; the MYOD1 mRNA by qPCR, +rapamycin/-rapamycin ratio came out at 29.
